Data on 1 molecule can be found in publication PMC5816707.

One data set addresses T1, TIA1 (Homo sapiens (cDNA from HEK293 cells), UniProt P31483 1-386).
T1 sequence: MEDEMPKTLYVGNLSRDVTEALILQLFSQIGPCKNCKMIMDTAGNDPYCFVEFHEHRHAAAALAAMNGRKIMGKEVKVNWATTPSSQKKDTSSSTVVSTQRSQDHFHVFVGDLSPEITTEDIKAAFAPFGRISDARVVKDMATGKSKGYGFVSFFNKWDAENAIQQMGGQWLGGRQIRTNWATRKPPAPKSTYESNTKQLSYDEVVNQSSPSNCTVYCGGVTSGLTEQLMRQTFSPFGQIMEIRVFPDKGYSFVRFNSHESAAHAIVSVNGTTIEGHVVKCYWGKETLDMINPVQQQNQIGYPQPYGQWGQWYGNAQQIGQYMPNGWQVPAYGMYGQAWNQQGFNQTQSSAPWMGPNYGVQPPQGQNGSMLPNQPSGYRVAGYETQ
Nature of the data set: EMSA.

For a further data set, the target named is T2, TIAL1 (Homo sapiens (cDNA from HEK293 cells), UniProt Q01085 1-375).
T2 sequence: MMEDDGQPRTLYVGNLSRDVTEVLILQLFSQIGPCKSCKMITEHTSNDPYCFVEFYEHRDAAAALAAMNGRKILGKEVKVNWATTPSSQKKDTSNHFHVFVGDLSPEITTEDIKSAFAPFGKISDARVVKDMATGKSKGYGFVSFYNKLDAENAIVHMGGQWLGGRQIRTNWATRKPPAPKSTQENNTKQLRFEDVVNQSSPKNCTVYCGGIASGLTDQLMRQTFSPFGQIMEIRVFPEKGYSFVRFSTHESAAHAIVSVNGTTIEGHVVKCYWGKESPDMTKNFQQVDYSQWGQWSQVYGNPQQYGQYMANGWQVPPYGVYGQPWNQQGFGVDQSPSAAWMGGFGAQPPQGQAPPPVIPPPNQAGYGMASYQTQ
Nature of the data set: EMSA.

Turning to AAAAAAAAAAAAAAAAAA (ssRNA) [poly(A)18], the binding result with TIA1 and with TIAL1 was “no binding” each time.
